In the nanobody polyreactivity screen of Harvey et al. (2022):

Test: yeast display, Sf9 membrane polyspecificity reagent, FACS + sequencing; frameworks hold sequencing errors
Outline: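 Polyreactivity labels are assigned by the sorting gate from which each nanobody was recovered. The gates were low and high (top ~1%), set on anti-HA fluorescence for expression and streptavidin fluorescence for reagent binding. Before sorting, galactose-induced (36–48 hours) yeast display cells were stained for 1 hour at 4 °C with 10% biotinylated, detergent-solubilized Sf9 membrane reagent.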

Row | Sequence | polyreactivity (PSR sort gate)
1 | QVQLVESGGGLVQAGGSLRLSCAASGIIFFYNAMGWYRQAPGKERELVAAISSDGSTYYADSVKGRFTISRDNAKNTVYLQMNSLKPEDTAVYYCNAGSLRYGPYNHWGQGTQVTVSS | low polyreactivity
2 | QVQLVESGGGLVQAGGSLRLSCAASGGTFYYNAMGWYRQAPGKERELVAAITSGDRTYYADSVKGRFTISRDNAKYTVYLQMNSLKPEDTAVYYCAARWFRSNKYWGQGTQVTVSS | high polyreactivity
3 | QVQLVESGGGIDQAGGSLRLSCAASGRTFTSNAMGWYRQAPGKERELVAVIDRSGTSTYYADSVKGRFTISRDNAKNTVYLQMNSLKPEDTAVYYCAVRVRYSYTSRAKMYYWGQGTQVTVSS | high polyreactivity
4 | QVQLVESGGGLDQAGGSLRLSCAASGRIFIDNTMAWYRQAPGKERELVAAISWSGGSTYYADSVKGRFTISRDNAKNTVYLQMNSLKPEDTAVYYCAARSLRSNGRTWAVTYDYWGQGTQVTVSS | low polyreactivity
5 | QVQLEESGGGLVQAGGSLRLSCAASGIIFAANAMGWYRQAPGKERELVAAISKNGGITYYADSVKGRFTISRDNAKNTVYLQMNSLKPEDTAVYYCAARWRQTRRYYYWGQGTQVTVSS | high polyreactivity
6 | QVQLVESGGGLVQAGGSLRLSCAASGIIFHWYAMGWYRQAPGKERELVAAITQSGGSTSYADSVKGRFTISRDNAKNTVYLQMNSLKPEDTAVYYCAKDYAYTLWENYYAFNYWGQGTQVTVSS | low polyreactivity
7 | QVQLVESGGGLVQAGGSLRLSCAASGRIFGYYAMGWFRQAPGKERELVATITFGGGSTYYADSVKGRFTISRDNAKNTVYLQMNSPKPEDTAVYYCAADSGYLGIYGDEYSWGQGTQVTVSS | low polyreactivity
8 | QVQLVESGGGLVQAGGSLRLSCAASGRIFSYYAMGWYRQAPGKERELVARITSRGASTYYADSVKGRFTISRDNAKNTVYLQMNSLKPEDTAVYYCATDRYRIYPDYDYWGQGTQVTVSS | high polyreactivity
9 | QVQLVESGGGLVQAGGSLRLSCDASGRIFYRYTMGWYRQAPGKERELVAAITDDSSTDYADSVKGRFTISRDNAKNTVYLQMNSLKPEDTAVYYCNADWYWKYDYWGQGTQVTVSS | low polyreactivity
10 | QVQLVESGGGLVQAGGSLRLSCAASGRTFRTYAMGWYRQAPGKETELVAANSSGGSTNYADSVKGRFTISRDNEKNTVYLQMNSLKPEDTAVYYCATRPTSDFVKRRVYEWLDYWGQGTQVTVSS | low polyreactivity
11 | QVQLVESGGGLVQAGGSLRLSCAASGRIFYLNAMGWYRQAPGKERQLVATITSGGSTNYADSVKGRFTISRDNAKNTVYLQMNSLKPEDTAVYYCAAGVSWYGPYDYLWFYAFDYWGQGTQVTVSS | low polyreactivity
12 | QVQLVESGVGLVQAGGSLRLSCAASGIIFRSYAMGWYRQAPGKERELVAAITSSGGRTYYADSVKGRFTISRDNAKNTVYLQMNSLKPEDTAVYYCAAKTYQQQIVRPMYYWGQGTQVTVSS | high polyreactivity
13 | QVQLVESGGGLVQAGGSLRLSCAASGSTFRYYALGWYRQAPGKERELVASISIGGGPTYYADSVKGRFTISRDNAKNTVYLQMHIQKPEDTAVYYCAAERTIRAARPVVRTFDYWGHGTQVTVSS | low polyreactivity
14 | QVQLVESGGGLVQAGGSLRLSCPASGSTFMKYDKGWYRQAPGIVRELVAAISWDGGSTYYADSVKGRFTISRDNAKNTVYLQMNSLKPEDTAVYYCNADYDVYLTIWYYYCEFDYWGQGSQVTVSS | low polyreactivity
15 | QVQLVESAGGLVQAGGSLRLSCAHSGITYTRYAMGWYRHAPGKESELVAAISSGGRTNYADSVKGRFTISRDNAKNTVYLQMNTLKPEDTAVYYCNAAGHRWYPRYHYWGQGTQVTVSS | high polyreactivity
16 | QVQLVESGGGLVQAGGSLRLSCAASGLIFRHYVMGWYRQAPGKERELVAAITSRGGTTYYADSVKGRFTISRDNAKNTVYLQMNSLKPEDTAVYYCNVVQNSRHGYTSYYWGQGTQVTVSS | high polyreactivity
17 | QVQLVESGGGLVQAGGSLRLSCAASGNTFSNYAMGWYRQAPGKERELVAAISRSGGRTYYADSVKGRFTISRDNAKNSVYLKMNSLKPEDTAVYDCIATSNGESYYWGQGTQVTVSS | high polyreactivity
18 | QVQLVESGGGLVQAGGRLRLSCAPSGSTFTANDMGWYRQAPVKERELVAAISISGTRTYYADSVKGRFTISRDNAKNTVYLQMNSLKPEDTAVYYGNKATSYFTVRGYDYWGQGTQVTVSS | high polyreactivity
19 | QVQLEESGGGLVQAGGSLRLSCAASGLISSPNAMGWYRQAPGKERELVAAITRRGGSTYYADSVKGRFTISRDNAMNTVYLQINSLKPEDTAVYYCAKATGRPGYDYWGQGTQVTVSS | high polyreactivity
20 | QVQLVESGGGLVQAGGSLRLSCAASGYTFDPYDMGRYRQAPGKERELVASISWSGGDTYYADSVKGRFTISRDNAKNTVYLQMNSLKPEDTAVYYCAADRYIPRSIIMDYWGQGTQVTVSS | low polyreactivity
21 | QVQLVESGGGLDQAGGSLRLSCAAYGSTFTYQSMGWYRQATGKERELVAAITWSSDITYYADSVKGRFTISRDNAKSTVYLQMNSLKPEDTAVYYCAADGVTRDYVYWGQGTQVTVSS | low polyreactivity
22 | QVQLVESGGGLVQAGGSLRLSCAASGLIFRRYAMGWYRQAPGKERELVAVISSGGRTYYADSVKGRFTISRDNAKNTVFLQMNSLKPEDTAVYYCAARTRSYWGTYGSYHYDYWGQGTQVTVSS | high polyreactivity

Row | Sequence | polyreactivity (PSR sort gate)
23 | QVQLVESGGGLVQAGGSLRLSCAASGLIFRYYAMGWYRQAPGKERELVAAISLRGGSTYYADSVKGRFTISRDNAKNTVYLQMNSLKPEDTAVYYCAAQWAAFSVANQYGYWGQGTQVTVSS | high polyreactivity
24 | QVQLVESGGGLVQAGGSLRLSCAASGIIVPNAMGWYRPAPGKERELVAAMSRSGGSTNYADSVKGRFTISRDNAKNTVYLQMNSLKPEDTAVYYCATKYNADTRYDYWGQGTQVTVSS | low polyreactivity
25 | QVQLVESGRGLVQAGGSLRLSCAASGSTFYIYAMGWYRQAPGKERELVAAISTTDGTTYYADSVKGRFTISRDNAKNTVYLQMNSLKPEDTAVYYCAAEWFGSVQPAYDYWGQGTQVTVSS | high polyreactivity
26 | QVQLVDSGGCLVHAGASLRLSCAASGGIFRTYAMGWARQAAGKERELVAAITFSAGSTFYADSVKGRYTISRDNAKNTVYLQMNSLKPEDTAVYDCATPGYILGLYQYWHHYDYWGQGTQVTVSS | low polyreactivity
27 | QVQLVESGGGLFQAGGSLRLSCAASGLIFRPYAMAWSRQAPGTERELVAAIRGSGGRTYYADSVKGRFTISRDNEKNTVYLQMNSLKPEDTAVYYCAVDVGRHTGYYYWGQGTQVTVSS | high polyreactivity
28 | QVQLVESGGGLVQAGGSLRLSCAASGFIFTVNAMGWYRQAPGKERELVAAITQSCGNTSYADSVKGRFTISRDNAKNTVYLQMNSLKPEDTAVYYCNASSDTSRYGVSTYYYWGQGTQVTVSS | low polyreactivity
29 | QVQLVESGGGLVQAGGSLRLSCAASGGTLQGNAMGWYRPAPGKERELVAAISSRGGRTYYADSVKGRFTSSRDNAKNTVYLQMNSLKPEDTAVYYCNAEYPVYFEGYPYYWDYWGDSWGQGTQVTVSS | high polyreactivity
30 | QVQLVESGGGLVQAGGSLRLSCAASGRTFIYYAMGWYRQAPRKERELVATIRGSSTRTYYADSVKGRFTISRDNAKNTVYLQMNSLKPEDTAVYYCAARGTSRKYYYWGQGTQVTVSA | high polyreactivity
31 | QVQLVESGGGLVQAGGSLRLSCADSGRTFFYYAMGWYRQAPGKERELVAAITTGGSTNYADSVKGRFTISRDNAKNTDYLQMKSLNPEDTEVYFCNADYDKGVRFNFTASFGEFDYWGQGTQVTVSS | low polyreactivity
32 | QVQLVESGGGLVQAGGSLPLSCAASGRIFYFNAMGWYRPAPGKEREFVASINSIGDSTYYADSVKGRFTISRDNAKKTVYLQMHSLKPEDTAVYYCNADHGVINYRLDYWGQGTQVTVSS | low polyreactivity
33 | QVQLVESGGGLVQAGGSLRLSCAASGRTLSFYAMGWYRQAPGKERELVASISSGGRTYYADSVKGRFTISRDNAKNTVYLQMNSLKPEDTAVYYCAVGYRSRYRSRDDYWGQGTQVTVSS | high polyreactivity
34 | QVQLVESGGGLVQAGGSLRLSCAASGSTFYRYAKVSYRQAPGKARELVAAITRTGGSTYADSVKGRFTISRDNAKYTDYLQMKSLKPEDTAVYYCAVQRYYVSSISPFYYWGQGTQVTVSS | low polyreactivity
35 | QVQLVESGGGLVQAGGSLRLSCAASGIIFTYYAMGWYRQAPGKERELVAAISVSGSSTYYADSVKGRFTISRDNAKNTVYLQMNSLKPEDTAVYYCAARYQWGTRGFGYWGQGTLVTVSS | high polyreactivity
36 | QVQLVESGGGLVQAGGSLRLSCAASGFIFSLYAMGWYRQAPGKERELVAAISKRGGSTNYADSVKGRFTISRDNAKNNVYLQMNSLKPEDTAVYYCAKARPGFLYDHWGQGTQVTVSS | high polyreactivity
37 | QVQLVESWGGLVQSGGSLRLISAASGRTYYYYVMGCYRQAPGKERDLVATINSGASTYYADSVKGRFTISRDNAKNTVYLQMNSLNPEDTAVYYCAACVLRRIAGVRYRYGFWGQGTQVTVSS | high polyreactivity
38 | QVQLVESGGGLVQAGGSLRLSCAASGFIFVKNAMGWYRQAPGKERELVAVISTRGGRTYYADSVKGRFTISRDNAKNTVYLQMNSLKPEDTAVYYCAADIWFYTYYEYDYWGQGTQVTVSS | high polyreactivity
39 | QVQLVESGGGLVQAGGSLRLSCAASGLIFNTYAMGWYRQARGKERELVAAITDGGGTNYADSVKGRFTISRDNAKNTVYLQMNSLKPEDTAVYYCAARLASWPLTYDFQWYEYWGQGTQVTVSS | low polyreactivity
40 | QVQLVESGGGLVQAGGSLRLSCAASGCTFVSYAMGWYRQEPGKEREFVAAIAWTGGSTRYADSVKGRFTISRDNAKNTVYLQMNSLKPEDTAVYYCAARYRHYLYGYDYWGQGTQVTLSS | low polyreactivity
41 | QFQLVESGGGLVQAGGILRLSCAASGLIFQAYTMGWYRQAPGKEREFVAAISKSGGSTYYADSVKGRFTISRDNAKNTVYLQMNSLKPEDTAVYYCAAVDWRRPGYDYWGQGTQVTVSS | high polyreactivity
42 | QVQLVESGGGLVQAGGRLRLSCAASGSTFRGYAMGWYRQAPGKEREFVAAITYTGSSTTYADSVIGRFTISRDNAKTTVYLQMNSLKPEYTADFYCAARYVASRIYKRYYWGQGTQVTVSS | high polyreactivity
43 | QVQLVESGGGLVQAGGSLRLSCAASGRIFGRNAMGWYRQAPGKERELVAGISSGGTTDYADSVKGRFTISRDNAKNTVYLQMNSLKPEDTAVYYCNDGYAYDDQTYYLGESDYWGQGTQVTVSS | low polyreactivity
